According to paper PMC9500918, “Extended N-Terminal Acetyltransferase Naa50 in Filamentous Fungi Adds to Naa50 Diversity” (International Journal of Molecular Sciences, 2022):
Residue numbers refer to the chain shown, from its start. In names and notes the source's numbering stands.

Columns and labels:
Experiment in all cases: colorimetric DTNB acetylation assay, Michaelis-Menten
Details in all cases: 1.5 mM MVNALE peptide, 30 °C, reaction buffer pH 7.5
[1] = substrate: CC(=O)SCCNC(=O)CCNC(=O)[C@H](O)C(C)(C)COP(=O)(O)OP(=O)(O)OC[C@H]1O[C@@H](n2cnc3c(N)ncnc32)[C@H](O)[C@@H]1OP(=O)(O)O; assay type: biochemical, Thermochaetoides thermophila
From the text: colorimetric DTNB acetylation assay, Michaelis-Menten on CtNaa50_82-445 (ΔN)

[2] = substrate: CC(=O)SCCNC(=O)CCNC(=O)[C@H](O)C(C)(C)COP(=O)(O)OP(=O)(O)OC[C@H]1O[C@@H](n2cnc3c(N)ncnc32)[C@H](O)[C@@H]1OP(=O)(O)O; assay type: biochemical, Thermochaetoides thermophila; remark: listed apart in the source
[3] = substrate: CC(=O)SCCNC(=O)CCNC(=O)[C@H](O)C(C)(C)COP(=O)(O)OP(=O)(O)OC[C@H]1O[C@@H](n2cnc3c(N)ncnc32)[C@H](O)[C@@H]1OP(=O)(O)O; assay type: biochemical, Thermochaetoides thermophila; remark: listed apart in the source
From the text: colorimetric DTNB acetylation assay, Michaelis-Menten on CtNaa50_1-289 (ΔC)

[4] = substrate: CC(=O)SCCNC(=O)CCNC(=O)[C@H](O)C(C)(C)COP(=O)(O)OP(=O)(O)OC[C@H]1O[C@@H](n2cnc3c(N)ncnc32)[C@H](O)[C@@H]1OP(=O)(O)O; assay type: biochemical, Neurospora crassa
From the text: colorimetric DTNB acetylation assay, Michaelis-Menten on NcNaa50_93-287 (GNAT)

[5] = substrate: CC(=O)SCCNC(=O)CCNC(=O)[C@H](O)C(C)(C)COP(=O)(O)OP(=O)(O)OC[C@H]1O[C@@H](n2cnc3c(N)ncnc32)[C@H](O)[C@@H]1OP(=O)(O)O; assay type: biochemical, Thermochaetoides thermophila; remark: listed apart in the source
From the text: colorimetric DTNB acetylation assay, Michaelis-Menten on CtNaa50_82-289 (GNAT)

B1: CtNaa50_82-445 (ΔN) (Thermochaetoides thermophila DSM 1495) (protein)
chain: LPSGASIVPLAQEHIPALRRINSLLLPVAYPDSFYHKALDPLASGLFSRAILWQDTNADPPKVVGGLICRLEPNPFLSVTGEPTPVQLPADQPQRAPQAPKDTPFHAIYIQSLALLSPYRSLGLAAAALDHIIATAAVLPAAGSNIDARTIYAHVWTENEEGLKWYESRGFVKEGGEPVKGYYFKLRPDTAWIVRRHIGESAKLNDVVSQPQPQPQQQLQQQPAVDIAPTATSVLAAAVNLPPITSTPPPPSTGSKLPTSNTSTLASRPPPPLRSTSSSTSSATSLSYQNTRPPTEWNDIPPDMVAGPPIAARGRRVTAAAASDPAANGCSGTGSGASSRSASAAAGTGKKRKGRDYPTAAFGN
notes: N-terminal deletion, residues 82-445, E. coli
Q: For B1, which Km [1] is on record?
A: 41.2 ± 6.1 µM

Q: What about the kcat [1] of the same protein?
A: 0.398 ± 0.0167 s⁻¹

Q: And the kcat/Km [1]?
A: 9670 ± 1500 M⁻¹ s⁻¹

B2: CtNaa50_1-289/CtDLC1 complex (Thermochaetoides thermophila DSM 1495) (protein)
chain: MSASRQASIKSFFQPRGLPTHNTTFSSKTPPTDRATQTTTPPPVPPPAPAPPSHQPAAPEPITISVRLPPGGVPNLPSPPSLPSGASIVPLAQEHIPALRRINSLLLPVAYPDSFYHKALDPLASGLFSRAILWQDTNADPPKVVGGLICRLEPNPFLSVTGEPTPVQLPADQPQRAPQAPKDTPFHAIYIQSLALLSPYRSLGLAAAALDHIIATAAVLPAAGSNIDARTIYAHVWTENEEGLKWYESRGFVKEGGEPVKGYYFKLRPDTAWIVRRHIGESAKLNDVV
notes: CtNaa50 1-289 (S. cerevisiae, His-tag cut by TEV) co-purified with untagged CtDLC1 (E. coli); with putative dynein light chain 1 protein
Q: For B2, which Km [2] is on record?
A: 30.4 ± 6.3 µM

Q: And the kcat [2]?
A: 0.357 ± 0.02 s⁻¹

B3: CtNaa50_1-289 (ΔC) (Thermochaetoides thermophila DSM 1495) (protein)
chain: B2 chain
notes: C-terminal deletion, residues 1-289, N-terminal His-tag removed by TEV, S. cerevisiae
Q: For B3, which Km [3] is on record?
A: 31.9 ± 4.4 µM

Q: And the kcat [3]?
A: 0.272 ± 0.01 s⁻¹

Q: And the kcat/Km [3]?
A: 8500 ± 1170 M⁻¹ s⁻¹

B4: NcNaa50_93-287 (GNAT) (Neurospora crassa OR74A) (protein)
chain: SQANIVAVAEHHIAALRRINSLLLQVAYPDAFYAKVLEPLASGLFSRVILWSDDPTSEPKVIGGVVCRLEPNPFLDPNGQPQAPRIQQNQPGPSAPIDYPYHAIYIQSLALLSPYRSLGLAAAALEHIIASASILPAAGSTINVRTIYAHVWTENEEGLQWYGQRGFRTEGRDPVRGYYFKLRPDTAWIVRRDIG
notes: GNAT domain, residues 93-287, C-terminal His6, E. coli; full-length 494 residues
Q: B4 was tested. Which Km [4] did it give?
A: 146.9 ± 12.1 µM

Q: And the kcat [4]?
A: 1.6 ± 0.05 s⁻¹

Q: And the kcat/Km [4]?
A: 10800 ± 1000 M⁻¹ s⁻¹

B5: CtNaa50_82-289 (GNAT) (Thermochaetoides thermophila DSM 1495) (protein)
chain: LPSGASIVPLAQEHIPALRRINSLLLPVAYPDSFYHKALDPLASGLFSRAILWQDTNADPPKVVGGLICRLEPNPFLSVTGEPTPVQLPADQPQRAPQAPKDTPFHAIYIQSLALLSPYRSLGLAAAALDHIIATAAVLPAAGSNIDARTIYAHVWTENEEGLKWYESRGFVKEGGEPVKGYYFKLRPDTAWIVRRHIGESAKLNDVV
notes: GNAT domain, residues 82-289, C-terminal His6 kept, E. coli; full-length 445 residues; one molecule per asymmetric unit
Q: B5 was tested. Which Km [5] did it give?
A: 52.7 ± 8.6 µM

Q: And the kcat [5]?
A: 0.607 ± 0.03 s⁻¹

Q: And the kcat/Km [5]?
A: 11500 ± 2000 M⁻¹ s⁻¹

B6: CtNaa50_82-289 (GNAT) (Thermochaetoides thermophila DSM 1495; H235A) (protein)
chain: B5 chain with H154A
notes: as for B5
Q: B6 was tested. Which Km [5] did it give?
A: 15.3 ± 3.1 µM

Q: What about the kcat [5] of the same protein?
A: 0.0233 ± 0.00167 s⁻¹

Q: What about the kcat/Km [5] of the same protein?
A: 1500 ± 333 M⁻¹ s⁻¹

B7: CtNaa50_82-289 (GNAT) (Thermochaetoides thermophila DSM 1495; Y190F) (protein)
chain: B5 chain with Y109F
notes: as for B5
Q: How did the Km [5] turn out when B7 was run?
A: 22.0 ± 4.0 µM

Q: And the kcat [5]?
A: 0.0933 ± 0.005 s⁻¹

Q: What about the kcat/Km [5] of the same protein?
A: 4330 ± 833 M⁻¹ s⁻¹
